Source: patent US20220275095A1 (SURROZEN OPERATING, published 2022)
One block for each binder: values may come before it.

Experiments:
human Fzd10 CRD = target: T1, human Fzd10 CRD (human, UniProt Q9ULW2 21-152, limits assumed); test: BLI
T1 construct: domain: cysteine rich domain (CRD)
T1 sequence (looked up): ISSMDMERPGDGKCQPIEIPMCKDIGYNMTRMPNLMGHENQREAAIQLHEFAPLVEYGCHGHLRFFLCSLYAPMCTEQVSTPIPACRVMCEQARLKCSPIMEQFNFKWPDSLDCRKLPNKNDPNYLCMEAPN
Experimental: (§1) C-terminal biotinylated Fzd CRD recombinant protein was diluted to 20 nM in the running buffer (PBS, 0.05% Tween-20, 0.5% BSA, pH 7.2) and captured to the SA biosensor until coupling length reached 0.2 nm. Following capture of the Fzd CRD, the SA biosensor with captured biotinylated-Fzd CRD was dipped into wells containing the relevant antibody fragment at 7 different concentrations (0, 1.37, 4.12, 12.4, 37, 111.1, 333.3, 1000 nM) in running buffer, plus a well with only running buffer as a reference channel. KD was determined by global fitting, 1:1 binding model according to manufacturer recommended settings.

human Fzd1 CRD = human Fzd1 CRD (human, UniProt Q9UP38 105-232); test: BLI
Experimental: as §1

mouse Fzd4 CRD = target: T2, mouse Fzd4 CRD (mouse, UniProt Q61088 37-163, limits assumed); test: BLI
T2 construct: domain: cysteine rich domain (CRD)
T2 sequence (looked up): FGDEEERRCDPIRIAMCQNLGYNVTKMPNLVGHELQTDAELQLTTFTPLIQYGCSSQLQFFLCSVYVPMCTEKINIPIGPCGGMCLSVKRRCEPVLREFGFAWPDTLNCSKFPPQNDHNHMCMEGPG
Experimental: as §1

mouse Fzd9 CRD = target: T3, mouse Fzd9 CRD (mouse, UniProt Q9R216 24-158, limits assumed); test: BLI
T3 construct: domain: cysteine rich domain (CRD)
T3 sequence (looked up): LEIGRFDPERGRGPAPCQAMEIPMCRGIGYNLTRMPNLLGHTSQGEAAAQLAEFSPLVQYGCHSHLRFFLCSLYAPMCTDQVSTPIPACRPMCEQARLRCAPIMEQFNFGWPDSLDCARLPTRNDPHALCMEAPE
Experimental: as §1

mouse Fzd10 CRD = target: T4, mouse Fzd10 CRD (mouse, UniProt Q8BKG4 22-153, limits assumed); test: BLI
T4 construct: domain: cysteine rich domain (CRD)
T4 sequence (looked up): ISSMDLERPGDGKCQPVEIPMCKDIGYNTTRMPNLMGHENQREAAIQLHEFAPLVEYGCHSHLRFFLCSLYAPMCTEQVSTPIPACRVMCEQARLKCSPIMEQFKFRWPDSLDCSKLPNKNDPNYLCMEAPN
Experimental: as §1

mouse Fzd3 CRD = target: T5, mouse Fzd3 CRD (mouse, UniProt Q61086 23-138, limits assumed); test: BLI
T5 construct: domain: cysteine rich domain (CRD)
T5 sequence (looked up): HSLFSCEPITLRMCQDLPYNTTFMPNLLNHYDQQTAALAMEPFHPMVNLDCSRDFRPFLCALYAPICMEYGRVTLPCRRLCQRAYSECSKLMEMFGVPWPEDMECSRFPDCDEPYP
Experimental: as §1

mouse Fzd6 CRD = target: T6, mouse Fzd6 CRD (mouse, UniProt Q61089 19-134, limits assumed); test: BLI
T6 construct: domain: cysteine rich domain (CRD)
T6 sequence (looked up): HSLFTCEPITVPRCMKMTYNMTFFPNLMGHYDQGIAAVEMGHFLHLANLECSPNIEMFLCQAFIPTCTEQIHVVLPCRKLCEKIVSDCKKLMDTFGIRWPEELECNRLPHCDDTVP
Experimental: as §1

human Fzd7 CRD = human Fzd7 CRD (human, UniProt O75084 33-165); test: BLI
Experimental: as §1

human Fzd6 CRD = target: T7, human Fzd6 CRD (human, UniProt O60353 19-134, limits assumed); test: BLI
T7 construct: domain: cysteine rich domain (CRD)
T7 sequence (looked up): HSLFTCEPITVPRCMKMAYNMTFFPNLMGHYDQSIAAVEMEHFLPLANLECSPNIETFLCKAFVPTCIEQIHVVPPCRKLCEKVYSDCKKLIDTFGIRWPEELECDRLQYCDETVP
Experimental: as §1

mouse Fzd5 CRD = target: T8, mouse Fzd5 CRD (mouse, UniProt Q9EQD0 27-152, limits assumed); test: BLI
T8 construct: domain: cysteine rich domain (CRD)
T8 sequence (looked up): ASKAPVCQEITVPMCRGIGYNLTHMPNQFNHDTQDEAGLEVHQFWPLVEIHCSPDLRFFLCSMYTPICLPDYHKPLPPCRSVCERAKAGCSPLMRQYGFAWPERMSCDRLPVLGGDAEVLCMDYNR
Experimental: as §1

human Fzd9 CRD = target: T9, human Fzd9 CRD (human, UniProt O00144 23-157, limits assumed); test: BLI
T9 construct: domain: cysteine rich domain (CRD)
T9 sequence (looked up): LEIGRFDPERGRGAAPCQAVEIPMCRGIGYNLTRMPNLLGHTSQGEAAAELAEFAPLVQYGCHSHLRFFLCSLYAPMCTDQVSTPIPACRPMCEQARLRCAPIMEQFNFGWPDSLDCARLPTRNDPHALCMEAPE
Experimental: as §1

mouse Fzd2 CRD = mouse Fzd2 CRD (mouse, UniProt Q9JIP6 29-160); test: BLI
Experimental: as §1

human Fzd2 CRD = human Fzd2 CRD (human, UniProt Q14332 24-155); test: BLI
Experimental: as §1

human Fzd4 CRD = target: T10, human Fzd4 CRD (human, UniProt Q9ULV1 37-163, limits assumed); test: BLI
T10 construct: domain: cysteine rich domain (CRD)
T10 sequence (looked up): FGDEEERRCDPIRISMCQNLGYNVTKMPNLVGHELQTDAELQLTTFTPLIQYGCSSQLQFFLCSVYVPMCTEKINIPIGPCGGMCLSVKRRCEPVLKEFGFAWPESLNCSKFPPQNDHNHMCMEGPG
Experimental: as §1

mouse Fzd1 CRD = mouse Fzd1 CRD (mouse, UniProt O70421 100-227); test: BLI
Experimental: as §1

human Fzd5 CRD = target: T11, human Fzd5 CRD (human, UniProt Q13467 27-152, limits assumed); test: BLI
T11 construct: domain: cysteine rich domain (CRD)
T11 sequence (looked up): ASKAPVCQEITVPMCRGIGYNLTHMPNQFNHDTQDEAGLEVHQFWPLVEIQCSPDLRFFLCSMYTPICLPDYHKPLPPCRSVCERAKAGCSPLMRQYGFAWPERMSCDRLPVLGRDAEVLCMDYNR
Experimental: as §1

mouse Fzd7 CRD = mouse Fzd7 CRD (mouse, UniProt Q61090 33-165); test: BLI
Experimental: as §1

human Fzd3 CRD = target: T12, human Fzd3 CRD (human, UniProt Q9NPG1 23-138, limits assumed); test: BLI
T12 construct: domain: cysteine rich domain (CRD)
T12 sequence (looked up): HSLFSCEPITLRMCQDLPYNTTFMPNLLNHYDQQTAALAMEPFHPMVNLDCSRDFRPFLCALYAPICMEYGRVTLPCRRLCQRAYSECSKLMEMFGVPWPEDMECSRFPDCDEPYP
Experimental: as §1

[1] = target: T13, human Fzd8 cysteine rich domain (CRD) (human, UniProt Q9H461 28-153, limits assumed); test: BLI, Fab on captured biotinylated Fzd CRD; *** = 100 nM > KD >= 10 nM
T13 construct: domain: cysteine rich domain (CRD); C-terminally biotinylated in the BLI assay; also called hFzd8; hFzd8 (CRD)
T13 sequence (looked up): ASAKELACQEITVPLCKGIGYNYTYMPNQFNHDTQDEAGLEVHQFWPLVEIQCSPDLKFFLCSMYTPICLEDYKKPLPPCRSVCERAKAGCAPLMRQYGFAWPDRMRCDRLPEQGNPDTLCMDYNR
Experimental: as §1

human Fzd2 hinge region = target: T14, human Fzd2 hinge region (human, UniProt Q14332 150-201); test: phage ELISA
T14 construct: also called hFzd2L; 2L

Fzd2 CRD = Fzd2 CRD (UniProt Q14332 24-155); test: BLI (Octet Red 96), biotinylated Fzd2 CRD on streptavidin biosensor
Experimental: Binding kinetics of monospecific Fzd binders to either (CRD) or the extracellular hinge region (hinge) was determined by bio-layer interferometry (BLI) using Octet Red 96 (PALL ForteBio, Fremont, Calif.) instruments at 30° C., 1000 rpm with streptavidin (SA) biosensors. N-terminal biotinylated Fzd1 or Fzd2 CRD and Fzd1 or Fzd 2 hinge proteins were captured on the SA biosensor. Following capture of biotinylated-Fzd1 or Fzd2, the SA biosensor with captured […] was dipped into wells containing the relevant antibodies at 7 different concentrations in running buffer plus a well with only running buffer as a reference channel. KD was determined by global fitting. As shown in FIGS. 4A-4H these antibody fusion proteins only bound to either Fzd1 or Fzd2 protein with the hinge region, and not to the CRD domains alone.

binding result (human Fzd10 CRD): no binding (tested: 1000 nM) | binding result (human Fzd1 CRD): no binding (tested: 1000 nM) | binding result (mouse Fzd4 CRD): no binding (tested: 1000 nM) | binding result (mouse Fzd9 CRD): no binding (tested: 1000 nM) | binding result (mouse Fzd10 CRD): no binding (tested: 1000 nM) | binding result (mouse Fzd3 CRD): no binding (tested: 1000 nM) | binding result (mouse Fzd6 CRD): no binding (tested: 1000 nM) | binding result (human Fzd7 CRD): no binding (tested: 1000 nM) | binding result (human Fzd6 CRD): no binding (tested: 1000 nM) | binding result (mouse Fzd5 CRD): no binding (tested: 1000 nM) | binding result (human Fzd9 CRD): no binding (tested: 1000 nM) | binding result (mouse Fzd2 CRD): no binding (tested: 1000 nM) | binding result (human Fzd2 CRD): no binding (tested: 1000 nM) | binding result (human Fzd4 CRD): no binding (tested: 1000 nM) | binding result (mouse Fzd1 CRD): no binding (tested: 1000 nM) | binding result (human Fzd5 CRD): no binding (tested: 1000 nM) | binding result (mouse Fzd7 CRD): no binding (tested: 1000 nM) | binding result (human Fzd3 CRD): no binding (tested: 1000 nM) | KD [1]: 10 to 100 nM
B1: 027S-E5 Fab (Fab, V domains shown)
VH: QVQLEQSGAEVKKPGASVKVSCKASGGTFSSYAISWVRQAPGQGLEWMGMINPSGGSTTYAQKFQGRVTMTRDTSTSTVYMELSSLRSEDTAVYYCARQAGLHCSSTSCYLGNWFDPWGQGTLVTVSS
VL: DIQMTQSPSSLSASVGDRVTITCRASQGITKSLAWYQQKPGKAPKLLIYAASNLATGVPSRFSGSGSGTDFTLTISSLQPEDFATYYCQQYNTFPITFGQGTRLEIKR
notes: Fab chains as printed, heavy chain with hexa-histidine tag; also called 027S-E05

binding result (human Fzd2 hinge region): binds
B2: 031S-B02 (antibody, V domains shown)
VH: EVQLLESGGGLVQPGGSLRLSCAASGFTFSSYWMSWVRQAPGKGLEWVSAIGGSGANAYYADSVKGRFTISRDNSKNTLYLQMNSLRAEDTAVYYCVRDTNWAFDLWGQGTMVTVSS
VL: EIVMTQSPATLSVSPGERATLSCRASQSVSGSYLAWYQQKPGQAPRLLIYGASTRATGIPARFSGSGSGTEFTLTISSLQSEDFAVYYCQQYGSSPLTFGQGTKVEIK
notes: also called 31SB2

binding result (Fzd2 CRD): no binding
B3: 031S-B02 Fab (Fab, V domains shown)
VH: EVQLLESGGGLVQPGGSLRLSCAASGFTFSSYWMSWVRQAPGKGLEWVSAIGGSGANAYYADSVKGRFTISRDNSKNTLYLQMNSLRAEDTAVYYCVRDTNWAFDLWGQGTMVTVSS
VL: EIVMTQSPATLSVSPGERATLSCRASQSVSGSYLAWYQQKPGQAPRLLIYGASTRATGIPARFSGSGSGTEFTLTISSLQSEDFAVYYCQQYGSSPLTFGQGTKVEIK
notes: also called 31SB2
